According to PMC8383266 (Biochemistry, 2021):

Tests used:
[1] = tested on: CC1(C)S[C@@H]2[C@H](NC(=O)[C@H](N)c3ccccc3)C(=O)N2[C@H]1C(=O)O; assay: purified protein; conditions: pH 6.4; 25.0 °C
[2] = tested on: O=C(Cc1cccs1)N[C@@H]1C(=O)N2C(C(=O)O)=C(/C=C/c3ccc([N+](=O)[O-])cc3[N+](=O)[O-])CS[C@H]12; assay: purified protein; conditions: pH 6.4; 25.0 °C

(Mycobacterium tuberculosis H37Rv)
kcat [1]: 2.1 s⁻¹
kcat/Km [1]: 17000 M⁻¹ s⁻¹
Km [2]: 560 µM
kcat [2]: 220 s⁻¹
kcat/Km [2]: 390000 M⁻¹ s⁻¹
